Results as given in paper PMC6842044.

Target: Glial cell line-derived neurotrophic factor (GDNF), immobilised for SPR (UniProt P39905)
Assay: SPR

Kd: 85.5 nM
B1: Activin receptor-like kinase 5 (ALK5), analyte in SPR (receptor)
chain: LQCFCHLCTKDNFTCVTDGLCFVSVTETTDKVIHNSMCIAEIDLIPRDRPFVCAPSSKTGSVTTTYCCNQDHCNKIELPTTVKSSPGLGPVELAAVIAGPVCFVCISLMLMVYICHNRTVIHHRVPNEEDPSLDRPFISEGTTLKDLIYDMTTSGSGSGLPLLVQRTIARTIVLQESIGKGRFGEVWRGKWRGEEVAVKIFSSREERSWFREAEIYQTVMLRHENILGFIAADNKDNGTWTQLWLVSDYHEHGSLFDYLNRYTVTVEGMIKLALSTASGLAHLHMEIVGTQGKPAIAHRDLKSKNILVKKNGTCCIADLGLAVRHDSATDTIDIAPNHRVGTKRYMAPEVLDDSINMKHFESFKRADIYAMGLVFWEIARRCSIGGIHEDYQLPYYDLVPSDPSVEEMRKVVCEQKLRPNIPNRWQSCEALRVMAKIMRECWYANGAARLTALRIKKTLSQLSQQEGIKM
